± gives the standard deviation of the averaged measurements.

The record followed here is the supplement of paper PMC10126150.
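Also: ATP exposure 15 min at 22 °C before imaging.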

The subject of the data set is ATP. Description: switch fluorescence ratio, 500 uM ATP over buffer (Cy3 cluster intensity, sum of 5 cycles each) (fold (ratio)); higher = stronger signal-on switching upon ATP binding; sequences stand for … in TCGTCGGCAGCGTCAGATGTGTATAAGAGACAGTTTTTTTTTTTTTTTTTTTTTTTTT…TC. Particulars: aptamer strand: ATP DNA aptamer (quencher-CACCTGGGGGAGTATTGCGGAGGAAGG + anchor), 100 nM annealed; ATP concentration: 500 uM. In a few lines: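 Switching-strand clusters labelled with Cy3 on a modified Illumina MiSeq flow-cell were annealed to 100 nM quencher-labelled ATP aptamer, imaged in selection buffer, and re-imaged after 15 min with 500 uM ATP at 22 °C. This was done over five cycles with NaOH stripping and re-annealing in between. The fluorescence ratio is summed target-cycle over summed buffer-cycle Cy3 intensity per cluster, averaged per switch-domain sequence, excluding clusters outside 100-1000 RFU.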
GGTATTAGGT: the switch fluorescence ratio worked out at 1.01 ± 0.011. Then ATGTAGAGGG, with 1.01 ± 0.02; and ATTAGGTTAT, with 1 ± 0.048; and GATTTGTCGT, with 0.986 ± 0.022. Then GCTTTCGATC, with 1.05 ± 0.033; and AACTTGTGTG, with 0.989 ± 0.042. The figure for AAGATTGTCG is 1.14 ± 0.039; for TATCGTAGTG it is 0.98 ± 0.038; for GGATGGGTTG it is 1.09 ± 0.19. Consider ATTGGGCATT, for which the switch fluorescence ratio is 1.018 ± 0.006.

For TTTTCTCCTC, the switch fluorescence ratio is 1.31 ± 0.35. Then GCCTGATTTA, with 0.95 ± 0.029.

In the case of ATCGTTCTTT, the switch fluorescence ratio stood at 0.973 ± 0.027. The figure for GCCCTATCAT is 0.981 ± 0.027; for CTTATAAATT it is 0.999 ± 0.021. As for GATGGTGTTT, the switch fluorescence ratio worked out at 1 ± 0.034. For the sequence CAGGTATTCA, the switch fluorescence ratio was determined as 1.0177 ± 8.3e-05. As to CGGTCGGGTC, the switch fluorescence ratio amounted to 1.01 ± 0.028. Then GGTCCGGGCG, with 0.997 ± 0.024. Then GCGGTAGTCG, with 1.02 ± 0.052. Then CCAGACGGGG, with 0.986 ± 0.029; and TTCATTTCGT, with 1 ± 0.024; and AAGAGGTCG, with 1.02 ± 0.046. As to TAGGGTGTGC, the switch fluorescence ratio was 1 ± 0.037. Then AGTATTGCGA, with 0.974 ± 0.01; and GTAATCTGTT, with 0.989 ± 0.075; and GGAAATTGTG, with 1.04 ± 0.052. Then GGTCCTGTCG, with 1.03 ± 0.042; and CGCAGTAGTG, with 1.16 ± 0.032. Then TAATACTGTT, with 0.888 ± 0.031; and CTACTTTGGG, with 1.01 ± 0.027. For GGATTCAGCA, the switch fluorescence ratio was 1.01 ± 0.022. In the case of GACGGCGGGC, the switch fluorescence ratio was 0.989 ± 0.023. The figure for CGTTTTGTGA is 1 ± 0.0054; for GCGGCACGGC it is 1.01 ± 0.03. Then CAAGTTTGC, with 1.08 ± 0.017; and GGATTAGCTG, with 1.01 ± 0.049. Then GGGTGGGGTG, with 1 ± 0.018.

With CCCGTTGGTT, the switch fluorescence ratio was 1.27 ± 0.34.

As for TGACACTTGG, the switch fluorescence ratio worked out at 0.99 ± 0.011. Then TATGGAAGAG, with 0.977 ± 0.054.

CCGATGATTT: the switch fluorescence ratio was 1.5 ± 0.56. The figure for TTAAACCTAA is 1.02 ± 0.052; for TTAAAGTGAG it is 0.99 ± 0.037. Then AGTTTTAGGT, with 1.02 ± 0.036; and TTGGTCGGG, with 0.98 ± 0.044. As to CGGGTGGGG, the switch fluorescence ratio was determined as 1.03 ± 0.071. The figure for CTTGTGGCTG is 1.031 ± 0.0033; for ACTGGGAAG it is 1.05 ± 0.064. The figure for ACCAGGTGAT is 4.78 ± 0.26.

On to AGTTTGCTGG, for which the switch fluorescence ratio was 0.996 ± 0.039. The figure for TTTAGACA is 1.02 ± 0.053; for TGGGTGAGGA it is 1.04 ± 0.054; for TGCAGAAGCC it is 1.02 ± 0.026. Then TGGTAAACGC, with 1.03 ± 0.05; and GCTGGTAAAG, with 0.972 ± 0.017.

As to TCCGGGTTTG, the switch fluorescence ratio was found to be 1.02 ± 0.037. The figure for AGTAATGGGA is 1.06 ± 0.064; for TTATGACTGT it is 1.015 ± 0.01.

With AGGGTGAGGT, the switch fluorescence ratio worked out at 0.993 ± 0.022. The figure for TCAGTGTGTT is 1.02 ± 0.038. Then TTGGGGTTGG, with 1.01 ± 0.03. The figure for CCCGAAGTCT is 1.05 ± 0.012; for GGCGGAACTA it is 1.01 ± 0.018.

On to CGCTGATTAG, for which the switch fluorescence ratio was found to be 1.041 ± 0.0092.

Consider TGGGGGTATA, for which the switch fluorescence ratio was 1.03 ± 0.06. For the sequence TTCGGGTGGC, the switch fluorescence ratio came out at 1.02 ± 0.051.
